PMC11154593, “New insights into the domain of unknown function (DUF) of EccC5, the pivotal ATPase providing the secretion driving force to the ESX-5 secretion system” (Acta Crystallographica. Section D, Structural Biology, 2024)
Where “and” joins values, the source holds several entries; their conditions need not be identical. Equal entries are not always repeated.

Target: the molecule itself
Assay: SEC; […] (16/60) […]; 20 mM Tris-HCl pH 7.5, 150 mM NaCl ([…]) or 20 mM HEPES pH 7.5, 150 mM NaCl, 5 mM MgCl2 ([…]; 4°C

B1: DUF domain of EccC5 from M. tuberculosis (crystallographic construct, residues 1-417 with 17-118 rep (domain or fragment)
chain: MKRGFARPTPEKPPVIGSSGQESADSMDANYRWFHPAPNTLAAAVGSPRMWERKPDGKDLNFGVVRVGGSGFGRYQSVVYNLPKMVSLLVEPWYALVGEREQVLGLMRAIICQLAFSHGPDHVQMIVVSSDLDQWDWVKWLPHFGDSRRHDAAGNARMVYTSVREFAAEQAELFAGRGSFTPRHASSSAQTPTPHTVIIADVDDPQWEYVISAEGVDGVTFFDLTGSSMWTDIPERKLQFDKTGVIEALPRDRDTWMVIDDKAWFFALTDQVSIAEAEEFAQKLAQWRLA
notes: EccC5, M. tuberculosis, UniProt P9WNA5, residues 1-16 (before the removed transmembrane region); linker replacing residues 17-118; EccC5, M. tuberculosis, UniProt P9WNA5, residues 119-166; linker replacing residues 167-198; EccC5, M. tuberculosis, UniProt P9WNA5, residues 199-417; also called MtbEccC5 DUF; EccC5 DUF; not shown: His6, N-terminal, cleaved; SUMO, N-terminal, cleaved
Q: B1 was tested. Which “stoichiometry N” value did it give?
A: 3 and 6
